Results: US20240391987A1 (ALAMAB THERAPEUTICS, published 2024)

Experiments:
[1] = target: T1, Cx43 hemichannels of primary human osteocytes (human, UniProt P17302 2-382); assay: cell ELISA on primary human osteocytes
T1 construct: whole, on cells; The assay target is the whole cell (primary human osteocytes); also called connexin 43; gap junction alpha-1 protein

[2] = target: T2, Cx43 hemichannels of mouse osteocytes (MLO-Y4 cells) (mouse, UniProt P23242 2-382); assay: cell ELISA on mouse osteocytes (MOL-Y4)
T2 construct: whole, on cells; The assay target is the whole cell; also called connexin 43; GJA1

[3] = target: T1, Cx43 hemichannels of primary human …; assay: cell-based or functional assay
[4] = target: T2, Cx43 hemichannels of mouse osteocytes …; assay: cell-based or functional assay

T2 sequence (P23242 2-382): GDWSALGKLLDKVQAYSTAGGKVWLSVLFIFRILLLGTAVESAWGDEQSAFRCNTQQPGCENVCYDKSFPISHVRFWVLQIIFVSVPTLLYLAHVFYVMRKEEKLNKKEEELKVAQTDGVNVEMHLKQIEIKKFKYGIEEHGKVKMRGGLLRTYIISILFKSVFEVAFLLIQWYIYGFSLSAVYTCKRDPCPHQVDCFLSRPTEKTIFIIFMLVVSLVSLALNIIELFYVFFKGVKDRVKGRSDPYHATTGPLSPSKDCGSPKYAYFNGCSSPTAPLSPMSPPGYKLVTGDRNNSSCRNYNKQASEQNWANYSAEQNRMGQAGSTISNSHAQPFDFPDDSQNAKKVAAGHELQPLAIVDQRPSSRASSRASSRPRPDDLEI
T1 sequence (P17302 2-382): as the sequence (P23242 2-382) above, with E123D, V163I, R242K, T250S, P252A, S256A, P262Q, S340N, A343S, V346L counted along it

EC50 [1]: 41 mg/L
EC50 [2]: 37.3 mg/L
EC50 of Cx43 hemichannel opening, EB staining, human osteocytes [3]: 3.97 mg/L
EC50 of Cx43 hemichannel opening, EB staining, MOL-Y4 cells [4]: 2.33 mg/L
plasma ATP level in mice, luciferin/luciferase assay, against saline-treated mice [4]: > 5 fold
B1: ALMB-0168 (antibody, V domains shown)
VH: EVQLVQSGAEVKKPGASVKVSCKASGYTFTSYYMYWVRQAPGQGLEWIGGINPSNAGTNFNEKFKNRATLTVDKSTSTAYMELSSLRSEDTAVYYCTREGNPYYTMNYWGQGTLVTVSS
VL: DVVMTQSPLSLPVTIGQPASISCKSSQSLLESDGKTYLNWLQQRPGQSPRRLIYLVSKLDSGVPDRFSGSGSGTDFTLKISRVEAEDVGVYYCWQGTHFPWTFGGGTKVEIKR
notes: also called anti-Cx43 antibody
